Values of other authors in publication PMC3957495.

Experiments:
CRF [1] = molecular target: CRF (UniProt P06850)
Urocortin 1 = Urocortin 1 (UniProt P55089)
CRF [2] = molecular target: CRF (UniProt P06850); remark: listed apart in the source

Sequence of CRF (P06850 154-194): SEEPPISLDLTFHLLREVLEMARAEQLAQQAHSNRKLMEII
Sequence of sCRF2a receptor (Q60748 20-411): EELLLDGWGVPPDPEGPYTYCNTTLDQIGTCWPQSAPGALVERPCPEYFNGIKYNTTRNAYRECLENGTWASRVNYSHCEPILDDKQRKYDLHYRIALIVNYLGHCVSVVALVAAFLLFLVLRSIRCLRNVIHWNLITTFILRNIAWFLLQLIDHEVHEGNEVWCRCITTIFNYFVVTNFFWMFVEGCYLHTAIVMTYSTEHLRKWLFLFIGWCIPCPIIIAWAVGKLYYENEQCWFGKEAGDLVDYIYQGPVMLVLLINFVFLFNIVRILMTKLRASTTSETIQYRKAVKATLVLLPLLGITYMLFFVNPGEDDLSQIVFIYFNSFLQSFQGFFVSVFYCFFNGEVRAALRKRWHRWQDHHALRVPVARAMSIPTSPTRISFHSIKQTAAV
Sequence of CRF2a-tr (P47866 20-411): as the sequence (Q60748 20-411) above, with V10E, T19S, V100I, A146T, I168V, I221V, A241P, V253I, M254I, A349S counted along it
Sequence of Urocortin 1 (P55089 83-122): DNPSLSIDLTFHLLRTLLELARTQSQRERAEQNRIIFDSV

Row | Substance | Ki (CRF [1]) | Ki (Urocortin 1) | Kd (CRF [2])
1 | sCRF2a receptor (from UniProt Q60748) | 23 nM | 6.6 nM | 
2 | CRF2a-tr (from UniProt P47866) |  |  | 12.7 nM
